# Values joined by “and” are separate entries in the source; they are usually repeats but may differ in a detail not shown here. Equal values may be shown once. No end group written: not given here.
# How the values were obtained:
# [1] = molecular target: VIP receptor on human cells (human); test: competition with 125I-VIP on PANC1 cells
# [2] = molecular target: VIP receptor on human cells (human); test: competition with 125I-VIP on HMC1 cells
# [3] = molecular target: VIP receptor on human cells (human); test: competition with 125I-VIP on human PMNCs
# [4] = molecular target: VIP receptor of guinea pig lung membranes (guinea pig); test: competition with 0.01 nM 125I-VIP, guinea pig lung membranes
# [5] = molecular target: VIP receptor on human cells (human); test: competition with 125I-VIP on KU812 cells
# [6] = molecular target: VIP receptor on human cells (human); test: competition with 125I-VIP on HT29 cells
# [7] = molecular target: VIP receptor on human cells (human); test: competition with 125I-VIP on human platelets
# [8] = molecular target: VIP receptor on human cells (human); test: competition with 125I-VIP on COLO320 cells
Binder,IC50 [1] [nM],IC50 [2] [nM],IC50 [3] [nM],IC50 [4],Ki [4] [nM],IC50 [5] [nM],IC50 [6] [nM],IC50 [7] [nM],IC50 [8] [nM],% inhibition @ 0.01 µM [4] [%]
AGCHSDAVFTDNYTRLRKQMAVKKYLNSILN-NH2 (also: non-radioactive ReO complexed to the chelating moiety) [ReO-complexed P915],14,15,7.5,< 10 nM and > 1 nM,–,–,7,4.5,6.7,–
HSDAVFTDNYTRLRKQMAVKKYLNSILNGGC-NH2 (also: non-radioactive ReO complexed to the chelating moiety) [ReO-complexed P916],12.5,7,6.5,20 nM,–,–,8.5,3,4,–
HSDAVFTDNYTRLRKQMAVKKYLNSILNKGC ((ε-K): lysine 29 linked through its ε-amino group; C-terminal amide; non-radioactive ReO complexed to the chelating moiety) [ReO-complexed P887],> 10,8.5,6,20 nM,–,5.2,6.6,6,6,–
HSDAVFTDNYTRLRKQMAVKKYLNSILN-NH2 [Vasoactive intestinal peptide (VIP)],4.2,7,5.5,–,–,0.8,1.2,4,1.5,–
AGCHSDAVFTDNYTRLRKQMAVKKYLNSILN-NH2 [P915],–,–,–,50 nM,–,–,–,–,–,–

# The next lines start with the values.
IC50 [1] [nM],IC50 [2] [nM],IC50 [3] [nM],IC50 [4],Ki [4] [nM],IC50 [5] [nM],IC50 [6] [nM],IC50 [7] [nM],IC50 [8] [nM],% inhibition @ 0.01 µM [4] [%],Binder
3.7,7,2.7,6.9 nM,6.7,1,2.2,0.8,2,–,"HSDAVFTDNYTRLRKQMAVKKYLNSILNC (C-terminal C(BAT): S-(N6,N9-bis(2-mercapto-2-methylpropyl)-6,9-diazanonan-1-yl)cysteine; C-terminal amide; non-radioactive ReO complexed to the chelating moiety) [ReO-complexed P917]"
–,–,–,< 10 nM,–,–,–,–,–,68,HSDAVFTDNYTRLRKQMAVKKYLNSILNKGC ((ε-K): lysine 29 linked through its ε-amino group to the carboxyl group of the preceding residue; C-terminal amide) [P887]
–,–,–,< 10 nM,–,–,–,–,–,83,"HSDAVFTDNYTRLRKQMAVKKYLNSILNC (C-terminal C(BAT): S-(N6,N9-bis(2-mercapto-2-methylpropyl)-6,9-diazanonan-1-yl)cysteine; C-terminal amide) [P917]"
–,–,–,< 10 nM,–,–,–,–,–,79,HSDAVFTDNYTRLRKQMAVKKYLNSILNGGC-NH2 [P916]
